To fix the notation:
B1: Twister Ribozyme (parent)
chain: AACACUGCCAAUGCCGGUCCCAAGCCCGGAUAAAAGUGGAGGGGGCGG

The variants in the data set derive from B1. Briefly: self-cleavage, relative activity (ratio to wild type); higher = more cleavage; co-transcriptional.
With U6A G16A, the self-cleavage was 0.604.

For the variant U18A G29C, the self-cleavage was determined as 0.0874.

Turning to G28A G45U, the self-cleavage amounted to 0.375.

Turning to C14U G38U, the self-cleavage was 0.904.

Regarding A30U G47U, the self-cleavage was found to be 0.954.

With A30U G41U, the self-cleavage worked out at 0.712.

With A30U G41C, the self-cleavage is 0.286.

For the variant A4U A34C, the self-cleavage was determined as 0.057.

For A23C A34C, the self-cleavage was 0.161.

Consider G17U C26A, for which the self-cleavage amounted to 0.719.

Take A11G C46U: the self-cleavage came to 0.943.

As to U12G G39C, the self-cleavage was 0.137.

Regarding C19A G42U, the self-cleavage came out at 0.103.

C21G G28U: the self-cleavage turned out to be 0.0788.

With A34G G48A, the self-cleavage is 0.645.

On to C5G C27U, for which the self-cleavage was found to be 0.445.

Regarding A2G A35U, the self-cleavage was 0.211.

C21G G41U: the self-cleavage amounted to 0.32.

A34C G38U: the self-cleavage worked out at 0.138.

On to G7U G42C, for which the self-cleavage came out at 0.0955.

As for A34C G36A, the self-cleavage is 0.0949.

For A1U U18C, the self-cleavage was 0.054.

In the case of A1U U18A, the self-cleavage came to 0.0328.

Consider G17U G36C, for which the self-cleavage was 0.14.

Take A10C C27U: the self-cleavage worked out at 0.932.

With A4G G47A, the self-cleavage is 0.91.

Turning to U6G G7A, the self-cleavage was determined as 0.501.

On to G7A G13A, for which the self-cleavage was found to be 0.0834.

As for A1C C26A, the self-cleavage amounted to 0.171.

Regarding U6C G7U, the self-cleavage stood at 0.0403.

On to C8G C27A, for which the self-cleavage worked out at 0.0513.

Take U18G A32G: the self-cleavage was found to be 0.0643.

On to C3U G28C, for which the self-cleavage was 0.167.

For the variant A23U U37A, the self-cleavage turned out to be 0.178.

As for A23U C25U, the self-cleavage was 0.116.

For A11U G39U, the self-cleavage amounted to 0.279.

For the variant A11U U31G, the self-cleavage stood at 0.893.

Regarding C5G C21U, the self-cleavage stood at 0.104.

Consider A4C A32U, for which the self-cleavage worked out at 0.159.

As for U6A C25G, the self-cleavage amounted to 0.121.

On to A2U C5A, for which the self-cleavage was 0.13.

G39A G43C: the self-cleavage came to 0.134.

Regarding A11C C19G, the self-cleavage stood at 0.138.

Consider A1G A35C, for which the self-cleavage stood at 0.359.

Regarding G16A G36U, the self-cleavage is 0.174.

With G13U C46U, the self-cleavage was 0.586.

With A1U C5G, the self-cleavage came to 0.0467.

On to A10C G29C, for which the self-cleavage stood at 0.845.

With G13U G44A, the self-cleavage was determined as 0.821.

With U6C G28C, the self-cleavage was 0.215.

As to C14A A40G, the self-cleavage came out at 0.136.

On to G7C A33U, for which the self-cleavage stood at 0.0354.

Turning to C5U G7U, the self-cleavage worked out at 0.0676.

Turning to G13U G47C, the self-cleavage was found to be 0.179.

Take C8G G36A: the self-cleavage was 0.129.

For the variant C5U G41U, the self-cleavage stood at 0.221.

As to C19U A23C, the self-cleavage stood at 0.117.

C9U A30U: the self-cleavage turned out to be 0.579.

As for C15A G43C, the self-cleavage was 0.17.

With G24U G44A, the self-cleavage was 0.127.

On to C8U C25A, for which the self-cleavage amounted to 0.0853.

As for G17U A23G, the self-cleavage came out at 0.0937.

Take C5G G7U: the self-cleavage was determined as 0.0648.

As to A11G G24U, the self-cleavage was 0.143.

Regarding C14G A30G, the self-cleavage was found to be 0.122.

In the case of U31G U37C, the self-cleavage turned out to be 0.634.

A1G G29A: the self-cleavage worked out at 0.437.

Turning to G44U G47C, the self-cleavage worked out at 0.523.

C3G U37C: the self-cleavage was 0.18.

G38U G39A: the self-cleavage came out at 0.185.

On to A4U C19U, for which the self-cleavage was determined as 0.0724.

Take A22U G24C: the self-cleavage was found to be 0.0864.

Take A4C G13C: the self-cleavage stood at 0.0474.

Turning to G13C G47A, the self-cleavage was 0.154.

A11G A35G: the self-cleavage came to 0.826.

As for C3U A23U, the self-cleavage was determined as 0.194.

Consider G28C A30C, for which the self-cleavage was 0.848.

A23U G44C: the self-cleavage was found to be 0.578.

C21A C46A: the self-cleavage was found to be 0.0995.

With G39A G48U, the self-cleavage was 0.517.

For A35C A40U, the self-cleavage is 0.142.

As for A1G C27U, the self-cleavage stood at 0.36.

As to C26A G38U, the self-cleavage was 0.221.

Turning to C8U C9G, the self-cleavage is 0.158.

Turning to G16A A30G, the self-cleavage came out at 0.958.

As for A35C G41C, the self-cleavage worked out at 0.245.

With A35C G41U, the self-cleavage is 0.709.

Consider G16A A22G, for which the self-cleavage came out at 0.155.

With A2C G7U, the self-cleavage came out at 0.0484.

For C5U G47C, the self-cleavage came out at 0.315.

On to U12G G42A, for which the self-cleavage came out at 0.494.

Regarding U12G G42U, the self-cleavage was 0.531.

On to U31C A34G, for which the self-cleavage is 0.664.

Regarding C27A A32U, the self-cleavage was found to be 0.446.

For G41C G47A, the self-cleavage turned out to be 0.235.

As to A10C C19A, the self-cleavage was found to be 0.214.

With A23C C26G, the self-cleavage is 0.12.

With A10C G45A, the self-cleavage was 0.881.

Regarding A2U A32U, the self-cleavage stood at 0.722.

As to A2U C25U, the self-cleavage was found to be 0.169.

On to G13C G44U, for which the self-cleavage was 0.254.

For G45C G47C, the self-cleavage is 0.427.

In the case of U12C C20U, the self-cleavage worked out at 0.695.

Consider U12C C20A, for which the self-cleavage is 0.128.

On to U37C A40C, for which the self-cleavage was 0.0942.

Turning to A35C G45C, the self-cleavage stood at 0.472.

Take A10C G48A: the self-cleavage worked out at 0.822.

On to A10C G48U, for which the self-cleavage was found to be 1.01.

G41U G42C: the self-cleavage turned out to be 0.164.

Regarding G16U G42C, the self-cleavage came out at 0.25.

In the case of G7A C20A, the self-cleavage came out at 0.0724.

For the variant C15G A34U, the self-cleavage came to 0.109.

In the case of A4C G24C, the self-cleavage was determined as 0.078.

For C8A U12G, the self-cleavage is 0.213.

Consider A10C U12A, for which the self-cleavage turned out to be 1.24.

On to G17C A33C, for which the self-cleavage is 0.0741.

For the variant A35G U37A, the self-cleavage was 0.574.

As for A10C G24U, the self-cleavage was determined as 0.0955.

Regarding A11G C26U, the self-cleavage worked out at 0.466.

Take G16U G36C: the self-cleavage turned out to be 0.156.

On to U6C U12G, for which the self-cleavage was 0.465.

For the variant G13A A32C, the self-cleavage was 0.689.

As to C26U G36A, the self-cleavage is 0.0777.

Consider C15G U31A, for which the self-cleavage came to 0.186.

For the variant A1C G43U, the self-cleavage turned out to be 0.179.

Turning to A4G U31A, the self-cleavage worked out at 0.604.

Consider A4G U31C, for which the self-cleavage was 0.886.

On to C5U U12G, for which the self-cleavage turned out to be 0.763.

As to C14U G28U, the self-cleavage amounted to 1.08.

U6A G43U: the self-cleavage was found to be 0.245.

Take C27A G43A: the self-cleavage stood at 0.148.

Regarding C27A G45U, the self-cleavage was 0.207.

With A1C C21G, the self-cleavage amounted to 0.0972.

With U12C C21A, the self-cleavage was determined as 0.124.

For A10U C46G, the self-cleavage stood at 0.857.

As to A22G A30G, the self-cleavage was determined as 0.394.

For the variant C15G G47A, the self-cleavage worked out at 0.0633.

For the variant C15G G47U, the self-cleavage was found to be 0.0543.

On to C21G G44A, for which the self-cleavage amounted to 0.0938.

Regarding C25G G45C, the self-cleavage stood at 0.143.

In the case of G29A A35G, the self-cleavage was found to be 0.657.

Take G16U G45A: the self-cleavage amounted to 0.608.

G13C: the self-cleavage came to 0.584.

Take U12A G16C: the self-cleavage worked out at 0.688.

Regarding U31C G47A, the self-cleavage was found to be 0.926.

With A22C A32C, the self-cleavage worked out at 1.08.

As to G39C G43A, the self-cleavage turned out to be 0.103.

In the case of G24C A35G, the self-cleavage worked out at 0.0669.

As for A33G G48C, the self-cleavage worked out at 1.07.

As to G16A G44C, the self-cleavage worked out at 0.871.

G39C G41A: the self-cleavage is 0.0895.

On to G38C G41A, for which the self-cleavage came out at 0.295.

G36A A40U: the self-cleavage was determined as 0.124.

In the case of C25G G29U, the self-cleavage amounted to 0.651.

Consider G38U G48U, for which the self-cleavage turned out to be 1.05.

A34C G41A: the self-cleavage stood at 0.133.

Consider A4C U12G, for which the self-cleavage is 0.332.

Take C5A G13U: the self-cleavage amounted to 0.0864.

On to G13A C26G, for which the self-cleavage came out at 0.0899.

As for C25A G28C, the self-cleavage was found to be 0.146.

Consider G36C G43A, for which the self-cleavage was found to be 0.134.

As for A2C A11G, the self-cleavage came out at 0.102.

As for U31G G48A, the self-cleavage was 0.992.

Consider C26A A40G, for which the self-cleavage was determined as 0.182.

For the variant G16A A34C, the self-cleavage turned out to be 0.174.

As to A2G A23G, the self-cleavage came out at 0.0805.

As to A2U C46G, the self-cleavage was determined as 0.53.

Values taken from the RNAGym collection of RNA variant scans (doi:10.7554/elife.80360).
